Data published in publication PMC11289878.

Molecular target: B-isoform of human insulin receptor (hIR-B) (human) (UniProt P06213)
Chain of UniProt P06213 (P06213 28-1382): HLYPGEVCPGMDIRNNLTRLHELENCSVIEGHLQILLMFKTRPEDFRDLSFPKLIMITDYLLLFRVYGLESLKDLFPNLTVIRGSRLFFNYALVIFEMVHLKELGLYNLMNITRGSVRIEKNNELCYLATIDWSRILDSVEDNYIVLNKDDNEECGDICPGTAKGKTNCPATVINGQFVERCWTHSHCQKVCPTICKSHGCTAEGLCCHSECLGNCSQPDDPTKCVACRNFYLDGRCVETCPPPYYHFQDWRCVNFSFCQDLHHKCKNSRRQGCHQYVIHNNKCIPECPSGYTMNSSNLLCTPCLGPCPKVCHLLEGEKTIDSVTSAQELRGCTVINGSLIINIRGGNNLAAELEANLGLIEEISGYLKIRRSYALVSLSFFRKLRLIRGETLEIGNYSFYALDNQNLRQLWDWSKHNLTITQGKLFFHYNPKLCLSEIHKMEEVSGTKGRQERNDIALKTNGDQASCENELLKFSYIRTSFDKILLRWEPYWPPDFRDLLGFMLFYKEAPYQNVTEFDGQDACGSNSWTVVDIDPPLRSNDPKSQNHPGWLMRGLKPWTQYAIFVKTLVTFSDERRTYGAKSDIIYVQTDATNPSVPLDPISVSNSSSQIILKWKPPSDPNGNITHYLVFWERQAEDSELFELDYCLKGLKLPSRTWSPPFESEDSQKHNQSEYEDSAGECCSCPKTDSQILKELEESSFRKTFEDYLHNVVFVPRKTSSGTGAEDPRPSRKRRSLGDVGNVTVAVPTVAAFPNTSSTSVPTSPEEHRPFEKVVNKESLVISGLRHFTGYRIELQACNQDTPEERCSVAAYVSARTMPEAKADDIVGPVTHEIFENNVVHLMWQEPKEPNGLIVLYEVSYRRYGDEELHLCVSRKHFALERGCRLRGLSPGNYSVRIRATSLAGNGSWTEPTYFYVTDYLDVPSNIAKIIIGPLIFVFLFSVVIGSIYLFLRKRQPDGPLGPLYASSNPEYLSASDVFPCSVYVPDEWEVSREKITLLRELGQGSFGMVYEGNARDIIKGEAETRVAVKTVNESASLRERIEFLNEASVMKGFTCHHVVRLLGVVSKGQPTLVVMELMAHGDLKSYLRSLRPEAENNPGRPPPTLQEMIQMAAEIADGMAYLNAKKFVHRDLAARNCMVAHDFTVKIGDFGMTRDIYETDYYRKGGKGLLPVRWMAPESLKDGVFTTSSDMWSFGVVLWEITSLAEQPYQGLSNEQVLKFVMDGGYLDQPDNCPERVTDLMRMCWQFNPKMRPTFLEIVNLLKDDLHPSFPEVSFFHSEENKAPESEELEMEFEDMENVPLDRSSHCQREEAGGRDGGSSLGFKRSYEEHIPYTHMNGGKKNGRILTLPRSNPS

EC50 (nM) of insulin receptor Y1158 phosphorylation, HEK293 cells overexpressing hIR-B, 0% HSA: 50 nM
EC50 (nM) of insulin receptor Y1158 phosphorylation, HEK293 cells overexpressing hIR-B, 1% HSA: 83 nM
Rel. potency (%) to human insulin standard in the same assay, insulin receptor Y1158 phosphorylation, 0% HSA: 1.4%
Rel. potency (%) to human insulin standard in the same assay, insulin receptor Y1158 phosphorylation, 1% HSA: 1.5%
Substance: LY3209590 (Fc fusion)
